In publication PMC7190724, “Improved GPCR ligands from nanobody tethering” (Nature Communications, 2020):

How the values were obtained:
[1] = target: each of the PTHR1 receptor constructs that retained the ECD; assay: flow cytometry on cells; dose response of staining with VHH-Alexafluor647 (median fluorescent intensity); cells in PBS, 1 h on ice; curves without plateau constrained to the plateau seen with other VHHs
PTHR1_(YFPΔECD) = assay: as above

B1: VHH_(PTHR) (VHH)
VHH: EVQLVESGGGLVQAGGSLRLSCAASGNIFANNIMGWYRQPPGKEREFVAHVSHDGDSMYAVSVKGRFAISRKDATNLYLQMNSLKPEDTAIYFCRLLNIPTQGRMEGFWGQGTQVTVSS
- EC50 [1]: 100 to 200 nM

B2: VHHGFP (VHH)
VHH: QVQLQESGGALVQPGGSLRLSCAASGFPVNRYSMRWYRQAPGKEREWVAGMSSAGDRSSYEDSVKGRFTISRDDARNTVYLQMNSLKPEDTAVYYCNVNVGFEYWGQGTQVTVSS
- EC50 (PTHR1_(YFPΔECD)): < 10 nM
